Reference: publication PMC3981948 (Mucosal immunology, 2013)

Tests used:
[1] = target: T1, purified wild type CEACAM5 (human, UniProt P06731-1 35-685); assay: SPR
T1 sequence (looked up): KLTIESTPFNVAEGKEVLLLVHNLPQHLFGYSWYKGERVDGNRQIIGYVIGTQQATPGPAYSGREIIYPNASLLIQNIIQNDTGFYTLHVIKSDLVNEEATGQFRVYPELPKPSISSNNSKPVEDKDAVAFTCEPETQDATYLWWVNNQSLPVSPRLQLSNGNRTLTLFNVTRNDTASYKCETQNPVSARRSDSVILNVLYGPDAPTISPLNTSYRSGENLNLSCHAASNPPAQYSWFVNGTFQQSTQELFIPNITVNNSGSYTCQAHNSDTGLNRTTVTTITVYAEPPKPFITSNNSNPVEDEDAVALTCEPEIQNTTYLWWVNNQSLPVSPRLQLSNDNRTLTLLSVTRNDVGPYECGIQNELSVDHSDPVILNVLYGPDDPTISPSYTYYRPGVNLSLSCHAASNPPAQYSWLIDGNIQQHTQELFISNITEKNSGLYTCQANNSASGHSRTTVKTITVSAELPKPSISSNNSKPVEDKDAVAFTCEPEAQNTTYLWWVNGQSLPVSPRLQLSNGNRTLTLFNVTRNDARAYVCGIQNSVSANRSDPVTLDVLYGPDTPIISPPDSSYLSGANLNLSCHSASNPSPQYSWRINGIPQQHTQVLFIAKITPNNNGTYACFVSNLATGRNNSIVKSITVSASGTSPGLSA

[2] = target: T2, purified CEACAM5 mutant N70,81A (human, UniProt P06731-1 35-685, N70,81A | N70,81A); assay: SPR
T2 sequence (looked up): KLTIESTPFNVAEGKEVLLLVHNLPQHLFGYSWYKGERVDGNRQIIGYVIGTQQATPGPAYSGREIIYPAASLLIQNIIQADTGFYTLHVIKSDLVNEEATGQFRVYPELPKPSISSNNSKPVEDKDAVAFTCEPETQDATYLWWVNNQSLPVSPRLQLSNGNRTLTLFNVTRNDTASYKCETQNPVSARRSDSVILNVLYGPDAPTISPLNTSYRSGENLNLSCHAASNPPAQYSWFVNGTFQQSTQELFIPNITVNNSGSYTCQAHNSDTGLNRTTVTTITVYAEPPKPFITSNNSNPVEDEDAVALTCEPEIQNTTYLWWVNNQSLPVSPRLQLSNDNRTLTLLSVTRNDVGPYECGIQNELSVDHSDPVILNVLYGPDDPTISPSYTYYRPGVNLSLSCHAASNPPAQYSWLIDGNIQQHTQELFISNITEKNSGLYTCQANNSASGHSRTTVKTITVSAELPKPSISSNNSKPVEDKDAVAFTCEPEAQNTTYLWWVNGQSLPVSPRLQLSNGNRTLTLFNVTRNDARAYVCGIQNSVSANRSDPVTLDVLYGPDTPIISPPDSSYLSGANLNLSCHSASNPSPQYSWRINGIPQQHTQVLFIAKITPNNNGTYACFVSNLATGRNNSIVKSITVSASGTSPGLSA

B1: purified extracellular domain of CD8α (domain or fragment)
chain: not shown
A Kd [1] of 0.022 µM, a koff [1] of 0.00056 s⁻¹ and a kon [1] of 26000 M⁻¹ s⁻¹ were found for B1 in this work. The Kd [2] was 16 µM, the koff [2] was 0.0047 s⁻¹ and the kon [2] was 290 M⁻¹ s⁻¹.
